# From patent US20130266566A1 (AbbVie / Abbott, published 2013)
# T1: rat PAI-1 (rat, UniProt P20961 24-402)
# T1 sequence: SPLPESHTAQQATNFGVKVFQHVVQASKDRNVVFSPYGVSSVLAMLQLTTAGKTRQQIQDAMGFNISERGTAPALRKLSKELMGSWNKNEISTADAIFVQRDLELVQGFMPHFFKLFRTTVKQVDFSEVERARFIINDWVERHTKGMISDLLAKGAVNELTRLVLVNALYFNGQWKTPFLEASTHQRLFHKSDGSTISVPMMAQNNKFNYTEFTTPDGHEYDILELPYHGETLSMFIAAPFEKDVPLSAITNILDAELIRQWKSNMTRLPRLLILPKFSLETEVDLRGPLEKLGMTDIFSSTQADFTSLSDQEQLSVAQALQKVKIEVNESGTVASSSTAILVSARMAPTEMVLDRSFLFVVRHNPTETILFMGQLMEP
# T2: mouse PAI-1 (mouse, UniProt P22777 24-401)
# T2 sequence: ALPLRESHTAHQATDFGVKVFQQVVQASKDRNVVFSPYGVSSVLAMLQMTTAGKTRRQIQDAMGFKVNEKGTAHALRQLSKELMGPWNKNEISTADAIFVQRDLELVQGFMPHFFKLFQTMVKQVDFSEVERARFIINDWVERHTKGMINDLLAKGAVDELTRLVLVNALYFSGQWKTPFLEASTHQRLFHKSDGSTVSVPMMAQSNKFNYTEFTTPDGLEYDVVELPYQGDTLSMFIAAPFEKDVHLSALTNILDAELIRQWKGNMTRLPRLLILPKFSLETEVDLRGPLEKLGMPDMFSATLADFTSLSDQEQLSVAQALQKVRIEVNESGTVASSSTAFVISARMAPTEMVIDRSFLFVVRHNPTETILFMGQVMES
# How the values were obtained:
# Test in all cases: cell-based or functional assay
# [1] = molecular target: T3, active human PAI-1, recombinant, wild-type, non-glycosylated (E. coli) (human, UniProt P05121 24-402)
# cynomolgus PAI-1 = cynomolgus PAI-1 (cynomolgus, UniProt P05121 24-402 (human entry), limits assumed)
# rat PAI-1 [2] = molecular target: T1, rat PAI-1
# mouse PAI-1 [3] = molecular target: T2, mouse PAI-1
# [4] = molecular target: T3, active human PAI-1, recombinant, …; remark: listed apart in the source
# mouse PAI-1 [5] = molecular target: T2, mouse PAI-1; remark: listed apart in the source
# rat PAI-1 [6] = molecular target: T1, rat PAI-1; remark: listed apart in the source
binder,measurement,setting,value
Antibody 04 scFv (scFv) QVRLQQSGAEVKKPGSSVKVSCKASGGTFSSYAISWVRQAPGQGLEWMGGIIPTFGTANYAQKFRGRVTITANESTSTAYMELSGLRSEDTAVYYCAREKRQWLEGRFDYWGRGTLVTVSSDIQMTQSPSFLSASIGDRITITCRASEGIYHSLAWYQQKPGKAPKLLIHRATSLASGTPSRFGGSGSGTDFALTISSLQPDDFATYYCQQYSNYPLTFGGGTKLEIK,Chromogenic (IC50 in nM) human,[1],6.6 nM
same,Chromogenic (IC50 in nM) cyno,cynomolgus PAI-1,2.1 nM
same,Chromogenic IC50 ratio cyno/human,cynomolgus PAI-1,0.3 fold
same,Chromogenic (IC50 in nM) rat,rat PAI-1 [2],340 nM
same,Chromogenic IC50 ratio rat/human,rat PAI-1 [2],51.4 fold
same,Chromogenic (IC50 in nM) mouse,mouse PAI-1 [3],264 nM
same,Chromogenic IC50 ratio mouse/human,mouse PAI-1 [3],39.9 fold
Antibody 01 scFv (scFv) QVQLVQSGAEVKKPGSSVKVSCKASGGTFSSYAISWVRQAPGQGLEWMGGIIPIFGTANYAQKFQGRVTITADESTSTAYMELSSLRSEDTAVYYCAREKRQWLEGHFDYWGRGTLVTVSSDIQMTQSPSTLSASVGDRVTITCRASEGIYRSLAWYQQKPGKAPKLLIYKASSLASGVPSRFSGSGSGTEFTLTISSLQPDDFATYYCQQYSNYPLTFGGGTKVEIK,Chromogenic (IC50 in nM) human,[1],3.4 nM
same,Chromogenic (IC50 in nM) cyno,cynomolgus PAI-1,1.2 nM
same,Chromogenic IC50 ratio cyno/human,cynomolgus PAI-1,0.4 fold
same,Chromogenic (IC50 in nM) rat,rat PAI-1 [2],208 nM
same,Chromogenic IC50 ratio rat/human,rat PAI-1 [2],60.5 fold
same,Chromogenic (IC50 in nM) mouse,mouse PAI-1 [3],28.3 nM
same,Chromogenic IC50 ratio mouse/human,mouse PAI-1 [3],8.2 fold
same,HT-1080 Exo PAI-1 (IC50 in nM) human,[4],23.9 nM
same,HT-1080 Exo PAI-1 (IC50 in nM) mouse,mouse PAI-1 [5],34.5 nM
Antibody 02 scFv (scFv) QVQLVQSGAEVKKPGSSVKVSCKASGGTFSSYAISWVRQAPGQGLEWMGGIIPTFGTANYAQKFQGRVTITADESTSTAYMELSSLRSEDTAVYYCAREKRQWLEGHFDYWGRGTLVTVSSDIQMTQSPSTLSASVGDRVTITCRASEGIYHSLAWYQQKPGKAPKLLIYKASSLASGVPSRFSGSGSGTEFTLTISSLQPDDFATYYCQQYSDYPLTFGGGTKVEIK,Chromogenic (IC50 in nM) human,[1],0.6 nM
same,Chromogenic (IC50 in nM) cyno,cynomolgus PAI-1,1.1 nM
same,Chromogenic IC50 ratio cyno/human,cynomolgus PAI-1,1.8 fold
same,Chromogenic (IC50 in nM) rat,rat PAI-1 [2],530 nM
same,Chromogenic IC50 ratio rat/human,rat PAI-1 [2],891 fold
same,Chromogenic (IC50 in nM) mouse,mouse PAI-1 [3],553 nM
same,Chromogenic IC50 ratio mouse/human,mouse PAI-1 [3],929 fold
Antibody 14 scFv (scFv) QVQLQQSGAEVKKPGSSVKVSCKASGGTFSSYAISWVRQAPGQGLEWMGGIIPTFGTANYAQKFQGRVTITADESTSTAYMELSGLRSEDTAVYYCAREKRQWLEGHFDYWGRGTLVTVSSDIQMTQSPSFLSASIGDRVTITCRASEGIYHNLAWYQQKPGKAPKLLIYRASSLASGAPSRFSGSGSGTDFTFTISSLQPDDFATYYCQQYSNYPLTFGGGTKLEIK,Chromogenic (IC50 in nM) cyno,cynomolgus PAI-1,0.8 nM
same,Chromogenic (IC50 in nM) rat,rat PAI-1 [2],23.1 nM
same,HT-1080 Exo PAI-1 (IC50 in nM) human,[4],28 nM
same,HT-1080 Exo PAI-1 (IC50 in nM) rat,rat PAI-1 [6],52 nM
same,HT-1080 Exo PAI-1 (IC50 in nM) mouse,mouse PAI-1 [5],22 nM
Antibody 10 scFv (scFv) QVQLQQSGAEVKKPGSSVKVSCKASGGTFSSYAISWVRQAPGQGLEWMGGIIPTFGTANYAQKFQGRVTITADESTSTAYMELSSLRSEDTAVYYCAREKRQWLEGHFDYWGRGTPVTVSSDIQMTQSPSFLSASIGDRVAITCRASEGIYHSLAWYQQKPGKAPKLLIYRASSLASGAPSRFSGSGSGTDFTLTISSLQPDDFATYYCQQYSNYPLTFGGGTRLEIK,Chromogenic (IC50 in nM) human,[1],2.2 nM
same,Chromogenic (IC50 in nM) cyno,cynomolgus PAI-1,0.5 nM
same,Chromogenic IC50 ratio cyno/human,cynomolgus PAI-1,0.2 fold
same,Chromogenic (IC50 in nM) rat,rat PAI-1 [2],296 nM
same,Chromogenic IC50 ratio rat/human,rat PAI-1 [2],132 fold
same,Chromogenic (IC50 in nM) mouse,mouse PAI-1 [3],334 nM
same,Chromogenic IC50 ratio mouse/human,mouse PAI-1 [3],149 fold
Antibody 07 scFv (scFv) QVQLQQSGAEVKKPGSSVKVSCKASGGTFSSYAISWVRQAPGQGLEWVGGIIPTFGTANYAQKFQGRVTITADESTSTAYMELSGLRSEDTAVYYCAREKRQWLEGHFDYWGRGTPVTVSSDIQMAQSPSFLSASIGDRVTITCRASEGIYHELAWYQQKPGKAPKLLIYRASSLASGAPSRFSGSGSGTDFTLTISSLQPDDFATYYCQQYSNYPLTFGGGTKLEIK,Chromogenic (IC50 in nM) human,[1],187 nM
same,Chromogenic (IC50 in nM) cyno,cynomolgus PAI-1,117 nM
same,Chromogenic IC50 ratio cyno/human,cynomolgus PAI-1,0.6 fold
same,Chromogenic (IC50 in nM) rat,rat PAI-1 [2],91 nM
same,Chromogenic IC50 ratio rat/human,rat PAI-1 [2],0.5 fold
same,Chromogenic (IC50 in nM) mouse,mouse PAI-1 [3],143 nM
same,Chromogenic IC50 ratio mouse/human,mouse PAI-1 [3],0.8 fold
Antibody 05 scFv (scFv) QVQLQQSGAEVKKPGSSVKVSCKASGGTFSSYAISWVRQAPGQGLEWMGGIIPTFSTANYAQKFRGRVTITADESTSTAYMELSGLRSEDTAVYYCAREKRQWLEGHFDYWGRGTPVTVSSDIQMTQSPSFLSASIGDRVTITCRASEGIYHQLAWYQQKPGKAPKLLIYRASSLASGAPSRFSGSGSGTDFTLTISSLQPDDFATYYCQQYSNYPLTFGGGTKLEIK,Chromogenic (IC50 in nM) human,[1],5 nM
same,Chromogenic (IC50 in nM) cyno,cynomolgus PAI-1,0.5 nM
same,Chromogenic IC50 ratio cyno/human,cynomolgus PAI-1,0.1 fold
same,Chromogenic (IC50 in nM) rat,rat PAI-1 [2],860 nM
same,Chromogenic IC50 ratio rat/human,rat PAI-1 [2],172 fold
same,Chromogenic (IC50 in nM) mouse,mouse PAI-1 [3],718 nM
same,Chromogenic IC50 ratio mouse/human,mouse PAI-1 [3],144 fold
Antibody 09 scFv (scFv) QVQLQQSGAEVKKPGSSVKVSCKASGGTFSSYAISWVRQAPGQGLEWMGGIIPAFDTANYAQKFQGRVTITADESTSTAYMELSGLRSEDTAVYYCAREKRQWLEGHFDYWGRGTPVTVSSDIQMTQSPSFLSASIGDRVTITCQASEGIYHNLAWYQQKPGKAPKLLIYRASSLASGAPSRFSGSGSGTDFTLTISSLQPDDFATYYCQQYSNYPLTFGGGTKLEIK,Chromogenic (IC50 in nM) cyno,cynomolgus PAI-1,0.7 nM
same,Chromogenic (IC50 in nM) rat,rat PAI-1 [2],29.7 nM
same,HT-1080 Exo PAI-1 (IC50 in nM) human,[4],23 nM
same,HT-1080 Exo PAI-1 (IC50 in nM) rat,rat PAI-1 [6],52.7 nM
same,HT-1080 Exo PAI-1 (IC50 in nM) mouse,mouse PAI-1 [5],21 nM
Antibody 27 scFv (scFv) QVQLQQSGAEVKKPGSSVKVSCKASGGAFSSYAISWVRQAPGQGLEWMGGIIPTFGTANYAQKFQGRVTITADESTSTAYMELSGLRSEDTAVYYCAREKRQWLEGHFDYWGRGTPVTVSSDIQMTQSPSFLSASIGDRVTITCRASEGIYHNLAWYQQKPGKAPKLLIYRASSLASGAPSRFSGSGSGTDFTLTISSLQPDDFATYYCQQYSNYPLTFGGGTKLEIK,Chromogenic (IC50 in nM) cyno,cynomolgus PAI-1,2.2 nM
same,Chromogenic (IC50 in nM) rat,rat PAI-1 [2],49.8 nM
same,HT-1080 Exo PAI-1 (IC50 in nM) human,[4],18.8 nM
same,HT-1080 Exo PAI-1 (IC50 in nM) rat,rat PAI-1 [6],33.8 nM
same,HT-1080 Exo PAI-1 (IC50 in nM) mouse,mouse PAI-1 [5],16.4 nM
Antibody 06 scFv (scFv) QVQLQQSGAEVKKPGSSVKVSCKASGGTFSSYAISWVRQAPGQGLEWMGGIIPTFGTANYAQKFQGRVTITADESTSTAYMELSGLRSEDTAVYYCAREKRQWLEGHFDYWGRGTPVTVSSDIQMTQSPSFLSASIGDRVTITCRASEGIYHELAWYQQKPGKAPKLLIYRASSLASGAPSRFSGSGSGTDFTLTISSLQPDDFATYYCQQYSNYPLTFGRGTKLEIK,Chromogenic (IC50 in nM) human,[1],74.6 nM
same,Chromogenic (IC50 in nM) cyno,cynomolgus PAI-1,31.6 nM
same,Chromogenic IC50 ratio cyno/human,cynomolgus PAI-1,0.4 fold
same,Chromogenic (IC50 in nM) rat,rat PAI-1 [2],37.1 nM
same,Chromogenic IC50 ratio rat/human,rat PAI-1 [2],0.5 fold
same,Chromogenic (IC50 in nM) mouse,mouse PAI-1 [3],48.2 nM
same,Chromogenic IC50 ratio mouse/human,mouse PAI-1 [3],0.6 fold
Antibody 26 scFv (scFv) QVQLQQSGAEVKKPGTSVKVSCKASGGTFSSYAISWVRQAPGQGLEWMGGIIPIFGTANYAQKFQGRVTITADESTSTAYMELSSLRSEDTAVYYCAREKRQWLEGHFDYWGRGTPVTVSSDIQMTQSPSFLSASIGDRVTITCRASEGIYHTLAWYQQKPGKAPKLLIYRASSLASGAPSRFSGSGSGTDFTLTISSLQPDDFATYYCQQYSNYPLTFGGGTKLEIK,Chromogenic (IC50 in nM) human,[1],4 nM
same,Chromogenic (IC50 in nM) cyno,cynomolgus PAI-1,1.2 nM
same,Chromogenic IC50 ratio cyno/human,cynomolgus PAI-1,0.3 fold
same,Chromogenic (IC50 in nM) rat,rat PAI-1 [2],245 nM
same,Chromogenic IC50 ratio rat/human,rat PAI-1 [2],61.4 fold
same,Chromogenic (IC50 in nM) mouse,mouse PAI-1 [3],211 nM
same,Chromogenic IC50 ratio mouse/human,mouse PAI-1 [3],52.9 fold
Antibody 03 scFv (scFv) QVQLQQSGAEVKKPGSSVKVSCKASGGTFSSYAISWVRQAPGQGLEWMGGIIPTFGTANYAQKFQGRVTITADESTSTAYMELSGLRSEDTAVYYCAREKRQWLEGHFDYWGRGTPVTVSSDIQMTQSPSFLSASIGDRVTITCRASEGIYRSLAWYQQKPGKAPKLLIYKASSLASGAPSRFSGSGSGTDFTLTISGLQPDDFATYYCQQYSNYPLTFGGGTKLEIK,Chromogenic (IC50 in nM) human,[1],1.8 nM
same,Chromogenic (IC50 in nM) cyno,cynomolgus PAI-1,0.1 nM
same,Chromogenic IC50 ratio cyno/human,cynomolgus PAI-1,0.1 fold
same,Chromogenic (IC50 in nM) rat,rat PAI-1 [2],297 nM
same,Chromogenic IC50 ratio rat/human,rat PAI-1 [2],165 fold
same,Chromogenic (IC50 in nM) mouse,mouse PAI-1 [3],54.9 nM
same,Chromogenic IC50 ratio mouse/human,mouse PAI-1 [3],30.5 fold
